Experimental data from publication PMC8626583, “Collagen’s primary structure determines collagen:HSP47 complex stoichiometry” (The Journal of Biological Chemistry, 2021).

Target: collagen model peptide Ac-(PPG)2PTGPRG(PPG)2-NH2
Assay: crystal structure; HSP47 H273N/H274N with Ac-(PPG)2PTGPRG(PPG)2-NH2, space group P2_(1); crystallization conditions not told

## HSP47 double-mutant H273N/H274N (natural protein)
  stoichiometry N (HSP47 per collagen triple helix): 2
